Assay results taken from patent US20190062438A1 (CSL, published 2019).
Where a chain is given by its changes, count along the chain named.

Assays:
Assay in all cases: SPR, kinetics, Fab over captured mutant
shCD131 T419A = biological target: T1, shCD131 T419A (human, UniProt P32927 17-438)
T1 construct: C-terminal 6xHis
T1 sequence: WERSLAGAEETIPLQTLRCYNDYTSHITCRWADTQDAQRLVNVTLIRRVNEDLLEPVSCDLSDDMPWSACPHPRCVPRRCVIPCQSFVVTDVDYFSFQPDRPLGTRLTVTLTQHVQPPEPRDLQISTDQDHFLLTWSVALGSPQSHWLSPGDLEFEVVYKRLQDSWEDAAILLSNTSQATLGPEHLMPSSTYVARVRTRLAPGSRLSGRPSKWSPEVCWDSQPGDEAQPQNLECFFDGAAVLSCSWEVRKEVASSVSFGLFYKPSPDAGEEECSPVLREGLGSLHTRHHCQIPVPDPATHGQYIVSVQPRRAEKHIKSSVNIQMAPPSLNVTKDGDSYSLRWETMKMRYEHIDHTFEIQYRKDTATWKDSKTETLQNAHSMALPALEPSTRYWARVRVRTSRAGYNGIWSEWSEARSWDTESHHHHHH
Description: (§1) As shβc is a dimer, kinetics assays were performed with shβc captured on the sensor surface, and purified Fab injected as the analyte. Avidity effects were avoided by the use of Fab rather than whole IgG.
(§2) shCD131 was captured on spots 1 and 5 of each flow cell for 2 minutes at a concentration of 0.4 μg/ml. […] For some analysis purified Fab was injected over each flow cell for 3 minutes and dissociation was monitored for a further 10 minutes. Regeneration of the surface was performed after each cycle with a 40 second injection of 25 mM glycine, pH 2.0. The analysis was performed with Fabs at several concentrations between 100 and 0.31 nM, with each concentration analyzed twice and in random order. The analysis was performed at a flow rate of 30 μl/min in HBS-EP buffer (10 mM Hepes, 150 mM NaCl, 3 mM EDTA, 0.005% Tween 20, pH 7.4) at 37° C. Responses from spots 2 and 4 of each flow cell, (in which shβc was not captured, but otherwise treated identically), were subtracted from those of spots 1 and 5 respectively to produce reference subtracted data. Reference subtracted responses from a blank injection comprising buffer alone were subtracted from the resultant sensorgrams to produce double referenced data suitable for kinetic analysis. Double-referenced sensorgrams were fitted using non-linear regression to a model describing 1:1 kinetics, including a term for mass transport limitation. The Rₘₐₓ value was fitted locally to account for slight deviations in the level of sCD131 captured, with association rate (kₐ), dissociation rate (kd) and equilibrium dissociation constant (KD) fitted globally.
(§3) Mapping of the shCD131 epitope was performed by measurement of the affinity of Fabs for various alanine point mutants of shCD131 essentially as described above, with the following exceptions. Each shCD131 mutant was captured for 120 seconds at concentrations between 1 and 5 μg/ml. For kinetic analysis, purified recombinant Fabs were injected for 2 minutes, and dissociation was monitored for a further 2 minutes. […] Fab concentrations ranged from 16 μM to 3.9 nM in two-fold dilutions.

shCD131 M363A = biological target: T2, shCD131 M363A (human, UniProt P32927 17-438)
T2 construct: C-terminal 6xHis
T2 sequence: T1 sequence with M347A, A403T
Description: as §1, §2, §3

shCD131 G420A = biological target: T3, shCD131 G420A (human, UniProt P32927 17-438)
T3 construct: C-terminal 6xHis
T3 sequence: T1 sequence with A403T, G404A
Description: as §1, §2, §3

shCD131 V105A = biological target: T4, shCD131 V105A (human, UniProt P32927 17-438)
T4 construct: C-terminal 6xHis
T4 sequence: T1 sequence with V89A, A403T
Description: as §1, §2, §3

B1: 9A2 Fab (Fab, V domains shown)
VH: EVQLLESGGGLVQPGGSLRLSCAASGFTFSHYHMLWVRQAPGKGLEWVSSIRSSGGFTYYADSVKGRFTISRDNSKNTLYLQMNSLRAEDTAVYYCARFYDSFFDIWGQGTMVTVSS
VL: DIQMTQSPSSVSASVGDRVTITCRASQGISSWLAWYQQKPGKAPKLLIYAASSLQSGVPSRFSGSGSGTDFTLTISSLQPEDFATYYCQQANSFPITFGQGTRLEIKR
notes: also called recombinant Fab of 9A2
Kd (shCD131 T419A): 53 nM | Kd (shCD131 M363A): 171 nM | Kd (shCD131 G420A): 63 nM | Kd (shCD131 V105A): 78 nM
